Results reported in article PMC11697113, “The Hsc70 system maintains the synaptic SNARE protein SNAP-25 in an assembly-competent state and delays its aggregation [drawing 1]” (The Journal of Biological Chemistry, 2024).

How the values were obtained:
Hsc70 [1] = molecular target: T1, Hsc70 (Homo sapiens, UniProt P11142); test: ATPase activity of Hsc70 (malachite green); type: biochemical; details: for ATPase activity of co-chaperone alone: baseline, protein alone without Hsc70
T1 construct: 6X His-tag (TEV-cleavable) (cleaved yes); made in house; host or cells: E. coli Rosetta (DE3)
T1 sequence (P11142 whole entry): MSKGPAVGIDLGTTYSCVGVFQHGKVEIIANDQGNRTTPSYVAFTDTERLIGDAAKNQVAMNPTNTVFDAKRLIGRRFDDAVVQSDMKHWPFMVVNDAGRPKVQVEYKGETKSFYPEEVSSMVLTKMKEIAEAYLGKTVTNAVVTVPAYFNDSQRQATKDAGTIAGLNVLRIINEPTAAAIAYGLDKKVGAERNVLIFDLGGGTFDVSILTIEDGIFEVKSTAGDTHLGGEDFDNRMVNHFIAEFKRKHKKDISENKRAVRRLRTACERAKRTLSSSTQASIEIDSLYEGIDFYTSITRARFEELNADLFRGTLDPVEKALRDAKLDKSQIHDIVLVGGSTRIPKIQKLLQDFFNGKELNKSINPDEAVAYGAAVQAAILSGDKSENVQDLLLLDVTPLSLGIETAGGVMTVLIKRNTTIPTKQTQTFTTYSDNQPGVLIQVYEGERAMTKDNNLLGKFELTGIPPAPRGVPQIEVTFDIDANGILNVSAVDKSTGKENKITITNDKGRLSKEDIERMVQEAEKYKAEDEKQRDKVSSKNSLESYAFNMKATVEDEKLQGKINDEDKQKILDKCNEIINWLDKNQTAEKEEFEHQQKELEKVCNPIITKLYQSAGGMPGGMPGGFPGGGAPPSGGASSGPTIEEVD
From the text: Hsp70s consist of an nucleotide-binding domain (NBD) and a substrate-binding domain (SBD). Hsc70 works using an allosteric mechanism whereby substrate binding at the SBD stimulates the ATP hydrolysis rate at the nucleotide-binding domain. The basal ATPase rate of Hsp70 is low, usually about 0.05 ± 0.009 mol Pi/mol protein, and increases when it is stimulated by binding of a peptide to the canonical site in the SBD. We measured the ability of SNAP-25 peptides SNNP and SNCP to stimulate the ATPase rate of Hsc70 (Fig. 5A). SNNP and SNCP binding cause a 1.5-fold increase of the Hsc70 ATPase rate over basal (observed rates upon addition of SNNP and SNCP were 0.089 ± 0.008 and 0.080 ± 0.005, respectively). In order to confirm that peptides are indeed binding at the canonical binding site of Hsc70, we used the V438F mutant that blocks the binding site ([37]). […] The addition of CSPαJ stimulates the ATPase activity of Hsc70 ∼4-fold with and without peptides.
Figure 5 SNN and SNC peptides interact with the canonical substrate-binding site of Hsc70.A, ATPase activity of Hsc70 (2 μM) in the absence (gray) and presence of 200 μM SNNP (orange) and SNCP (green) peptides. Error bars represent the SDs from three independent experiments. B, binding of SNAP-25 (black), SNNP (orange), LoopP (blue), and SNCP (green) peptides to Hsc70 followed by competition for FITC-p5 peptide using fluorescence anisotropy. Increasing concentrations of the competitors were added to a complex of Hsc70 (5 μM) and FITC-p5 peptide (50 nM). Error bars represent SDs from three independent experiments. C, structure of the canonical substrate-binding site of human HspA1 (PDB 4po2) illustrating the location of Hsc70 residues Ile 403 and Ile 440 in red and green spheres, respectively (N.B., Hsc70 and HspA1 share […] sequence identity). The SBD is shown in gray, bound substrate in cyan sticks, and the side chain of the residue occupying the 0th position in the chaperone (“anchor residue”) in orange ball and sticks. For better visualization of the substrate-binding site, residues 512 to 613, 405 to 408, and 431 were removed in this illustration of the structure. […]
We performed ATPase assays to observe the activity of Hsc70 in the presence of SNAP25 peptides. […] Absorbance readings were taken at 620 nm using a BioTek plate reader. […]
(C) ATPase activity of Hsc70 (at 2 μM) in the absence (grey) and presence of 200 μM SNNP (orange) and L(Loop)-SNCP (green) peptides, and in the absence and presence of CSPa-J and CSPa-J/Apg2. The statistical significance was calculated using one-way ANOVA test with Sidak’s multiple comparison and the Hsc70 ATPase activity […]

SNAP-25 = SNAP-25 aggregation kinetics by optical density; type: biochemical; details: SNAP-25 50 μM
Experimental: (§1) To test our hypothesis that Hsc70 inhibits SNAP-25 aggregation, we monitored the aggregation kinetics of recombinantly expressed SNAP-25 in the absence and presence of Hsc70 by following optical density at 360 nm (Fig. 2). […] This lag time was elongated to ∼65 h in the presence of Hsc70. In neurons, Hsc70 works in collaboration with its co-chaperone CSPα. […] (Fig. S2A). Apg2 is a member of the Hsp110 family, which is known to suppress protein aggregation ([36]). […] (Fig. S2B).
(§2) Figure 2 Hsc70 delays the aggregation of SNAP-25. Aggregation kinetics of SNAP-25 (50 μM) at 37 °C. Optical density of SNAP-25 was recorded at 360 nm in the absence (black) and in the presence of Hsc70 (5 μM, red), and Hsc70+CSPαJ (5 μM each, blue).
(§3) Aggregation of SNAP-25 at 50 μM was followed by measuring the A360 in a 96-well plate using a BioTek plate reader (BioTek), at 37 °C with shaking at 300 rpm, in the absence and presence of Hsc70 and CSPαJ at 5 μM each, and Apg2 at 0.5 μM. The aggregation buffer included 20 mM phosphate buffer pH 7.4, 100 μM MgCl2, and 100 mM KCl, and an ATP-experiment was carried out using regeneration system (5 mM 2-phosphoenolpyruvate, 0.05 mg/ml pyruvate kinase, and 5 mM ATP), as described previously ([51]).
(§4) Figure SI 2. Apg2 enhances the effect of Hsc70 on SNAP-25. (A) Aggregation kinetics of SNAP-25 (50 μM) at 37 °C. OD600 of SNAP-25 was recorded in the absence (black) and in the presence of Hsc70, Hsc70+CSPa-J (blue) and Hsc70+CSPa-J+Apg2 (turquoise). […]
(§5) concentrations are SNAP-25 (50 μM), Hsc70 (5 μM), CSPa-J (5 μM) and Apg2 (0.5 μM).
(§6) (B) Aggregation kinetics of SNAP-25 (50 μM) at 37 °C. OD600 of SNAP-25 was recorded in the absence (black) and in the presence of Apg2 (blue). […]

[2] = SNAP-25 aggregation kinetics by optical density; type: biochemical; details: without SNAP-25, 37 °C
Experimental: as §1, §2, §3, §4, §5, §6

Hsc70 [3] = molecular target: T1, Hsc70; test: SNAP-25 cellulose-bound peptide array probed with Hsc70; type: binding; details: Hsc70 with CSPαJ vs Hsc70 alone
From the text: To explore in greater depth the binding sites for Hsc70 in SNAP-25, we screened a cellulose-bound peptide array spanning the full SNAP-25 sequence with 13-residue long peptides, overlapping by ten residues, and probed with Hsc70 in the presence of a two-fold excess of ATP and ten-fold excess of ADP. The binding of Hsc70 to sites in the array was then visualized with an anti-Hsc70 primary antibody and a horse radish peroxidase-tagged secondary antibody to enable visualization by chemiluminescence (Fig. 4A). To quantitatively analyze the array, we used ImageJ (https://imagej.net/ij/) and plotted the intensity under the area for each spot. […] One site is located in the SNN, one in the LOOP, and one in the LOOP-SNC region (called SNC site) (Fig. 4A) […] (Fig. 1C). […] The binding site in the LOOP region is very close to the cysteine residues that become palmitoylated as SNAP-25 moves to its membrane-localized state. It is formally possible that Hsc70 binds to SNAP-25 in the initial un-palmitoylated state and dissociates upon palmitoylation and association with the plasma membrane. […]
B, quantification of the spots from Figure 4A using ImageJ (Hsc70 (gray) and Hsc70-CSPαJ (dark gray)). […]
A peptide array of SNAP-25 was obtained from CEM corporation. […] The chemiluminescence was captured in a G-box (Syngene), and the images were analyzed using ImageJ.

[4] = OD600 (Fig. S2A), Hsc70 5 μM, CSPa-J 5 μM, Apg2 0.5 μM

B1: Apg2: nucleotide exchange factor, member of the Hsp110 family (protein, UniProt P34932 1-840, looked up)
Heat shock 70 kDa protein 4: MSVVGIDLGFQSCYVAVARAGGIETIANEYSDRCTPACISFGPKNRSIGAAAKSQVISNAKNTVQGFKRFHGRAFSDPFVEAEKSNLAYDIVQLPTGLTGIKVTYMEEERNFTTEQVTAMLLSKLKETAESVLKKPVVDCVVSVPCFYTDAERRSVMDATQIAGLNCLRLMNETTAVALAYGIYKQDLPALEEKPRNVVFVDMGHSAYQVSVCAFNRGKLKVLATAFDTTLGGRKFDEVLVNHFCEEFGKKYKLDIKSKIRALLRLSQECEKLKKLMSANASDLPLSIECFMNDVDVSGTMNRGKFLEMCNDLLARVEPPLRSVLEQTKLKKEDIYAVEIVGGATRIPAVKEKISKFFGKELSTTLNADEAVTRGCALQCAILSPAFKVREFSITDVVPYPISLRWNSPAEEGSSDCEVFSKNHAAPFSKVLTFYRKEPFTLEAYYSSPQDLPYPDPAIAQFSVQKVTPQSDGSSSKVKVKVRVNVHGIFSVSSASLVEVHKSEENEEPMETDQNAKEEEKMQVDQEEPHVEEQQQQTPAENKAESEEMETSQAGSKDKKMDQPPQAKKAKVKTSTVDLPIENQLLWQIDREMLNLYIENEGKMIMQDKLEKERNDAKNAVEEYVYEMRDKLSGEYEKFVSEDDRNSFTLKLEDTENWLYEDGEDQPKQVYVDKLAELKNLGQPIKIRFQESEERPKLFEELGKQIQQYMKIISSFKNKEDQYDHLDAADMTKVEKSTNEAMEWMNNKLNLQNKQSLTMDPVVKSKEIEAKIKELTSTCSPIISKPKPKVEPPKEEQKNAEQNGPVDGQGDNPGPQAAEQGTDTAVPSDSDKKLPEMDID
effect of Apg2 on Hsc70 ATPase activity (Hsc70 [1]; Hsc70 2 μM with CSPαJ, with Apg2 (Fig. S2C)): not further increased | ATPase activity of co-chaperone alone (Hsc70 [1]): no ATPase activity | effect of Apg2 alone on SNAP-25 aggregation (SNAP-25; Apg2 without Hsc70/CSPαJ, 37 °C (Fig. S2B)): no significant effect | effect of Apg2 on SNAP-25 aggregation kinetics with Hsc70-CSPαJ (SNAP-25; Hsc70 5 μM, CSPαJ 5 μM, Apg2 0.5 μM, 37 °C (Fig. S2A)): further elongated | aggregation of the chaperone alone [2, 4]: exhibit no aggregation

B2: CSPαJ: J-domain (residues 1–100) of human CSPα (protein, UniProt Q9H3Z4 1-100, looked up, fragment)
chain: MADQRQRSLSTSGESLYHVLGLDKNATSDDIKKSYRKLALKYHPDKNPDNPEAADKFKEINNAHAILTDATKRNIYDKYGSLGLYVAEQFGEENVNTYFV
modifications: J-domain
notes: J-domain (residues 1–100) of human CSPα
stimulation of Hsc70 ATPase activity by CSPαJ (Hsc70 [1]; Hsc70 2 μM, with and without peptides): ~4 fold | ATPase activity of co-chaperone alone (Hsc70 [1]): no ATPase activity | effect of CSPαJ on lag time of SNAP-25 aggregation with Hsc70 (SNAP-25; Hsc70 and CSPαJ 5 μM each, 37 °C, OD 360 nm): elongates the lag time of SNAP-25 aggregation | aggregation of the chaperone alone ([2]; OD 360 nm (Fig. 2)): no aggregation | aggregation of the chaperone alone [2, 4]: exhibit no aggregation | effect of CSPαJ on specificity of Hsc70 binding to SNAP-25 array (Hsc70 [3]): does not change the specificity of Hsc70 binding to SNAP-25
